B1: Round 2 CTLA4 A-B11-5 (ligand)
chain: ITPKSATKRVKETVMLSCDYSTSTEELTSLRIYWQKDSKMVLAILPGKVQVWPEYKNRTITDMNDNPRIVILALRLSDSGTYTCVIQKPDLKGAYKLEHLTSVRLMIRADFPVPTINDLGNPSPNIRRLICSTSGGFPRPHLYWLENGEELNATNTTLSQDPETKLYMISSELDFNMTSNHSFLCLVKYGDLTVSQTFYWQESKPTPSANQHLTWTIIIPVSAFGISVIIAVILTCLTCRNAAIRRQRRENEVEMQSCSQSP
B2: Round 2 CTLA4 A-F6-9 (ligand)
chain: ITPKSVTKRVKETVMLSCDYSTSTEELTSLRIYWQKDSKMVLAILPGKVQVWPEYKNRTITDMNDNPRIVILALRLSDSGTYTCVIQKPDLKGAYKLEHLTSVRLMIRADFPVPTINDLGNPSPNIRRLICSTSGGFPRPHLYWLENGEELNATNTTLSQDPETKLYMISSELDFNMTSNHSFLCLVKYGDLTVSQTFYWQESKPTPSANQHLTWTIIIPVSAFGISVIIAVILTCLTCRNAAIRRQRRENEVEMQSCSQSP
B3: Round 2 CTLA4 A-G8-1 (ligand)
chain: ITPKSVTKRVKETVMLSCDYNTSTEELTSLRIYWQKDSKMVLAILPGKVQVWPEYKNRTITDMNDNPRIVILALPLSDSGTYTCVIQKPDLKGAYKLEHLTSVRLMIRADFPVPTINDLGNPSPNIRRLICSTSGGFPRPHLYWLENGEELNATNTTLSQDPETKLYMISSELDFNMTSNHSFLCLVKYGDLTVSQTFYWQESKPTPSANQHLTWTIIIPVSAFGISVIIAVILTCLTCRNAAIRRQRRENEVEMQSCSQSP
B4: Round 1 (R1) CTLA4BP-5 (ligand)
chain: VIHVTKEVKEVATLSCGHNVSVEELAQTRIHWQKEKKMVLTMMSGDMNIWPEYKNRTIFDITNNLSIVILALRPSDEGTYECVVLKYEKDAFKREHLAEVTLSVKADFPTPSISDFEIPPSNIRRIICSTSGGFPEPHLSWLENGEELNAINTTVSQDPGTELYTVSSKLDFNMTTNHSFMCLIKYGHLRVNQTFNWNTPKQEHFPDNLLPSWAITLISVNGIFVICCLTYCFAPRCRERRRNERLRRESVRPV
notes: also called R1-5
B5: Round 1 CTLA4BP-11 (ligand)
chain: VIHMTKEVKEVATLSCGHNVSVEELAQTRIYWQKEKKMVLTMMSGDMNIWPEYKNRTIFDITNNLSIVILALRPSDEGTYECVVLKYEKDAFKREHLAEVMLSVKADFPTPSITDFEIPPSNIRRIICSTSGGFPEPHLFWLENGEELNAINTTVSQDPETELYAVSSKLDFNMTTNHSFMCLIKYGHLRVNQTFNWNTTKQEHFPDNLLPSWAITLISVNGIFVICCLTHCFAPRCRERRRNERLRRESVHPV
notes: also called R1-11; R1 CTLA-4BP-11
B6: Round 1 CTLA4BP-13 (ligand)
chain: VIHVTKEVKEVATLSCGHNVSVEELAQTRIYWQKEKKMVLTMMSGDMNIWPEYKNRTIFDITNNLSIVILALRPSDEGTYECVVLKYEKDAFKREHLAEVTLSVKADFPTPSISDFEIPTSNIRRIICSTSGGFPEPHLFGLENGEEINAINTTASQDPETELYTVSSKLDFNMTPNRSFVCLIKYGHLRVNQTFNWNTPKQEHFPDNLLPSWAITLISANGIFVICCLTYCFAPRCRERKSNERLRRESVRPV
notes: also called R1-13; R1 CTLA-4BP-13
B7: Round 1 CTLA4BP-27 (ligand)
chain: VIHVTKEVKEVATLSCGLNVSVEELAQTRIYWQKEKKMVLTMMSGDMNIWPEYKNRTIFDITNNLSIVILALRPSDEGTYECVVLKYEKDAFKREHLAEVMLSVKADFPTPSISDFEIPPSNIRRIICSTSGGFPEPHLSWLENGEELNAINTTVSQDPETELYTVSSKLDFNMTANHSFVCLIKYGHLRVNQTFNWNTPKQEHFPDNLLPSWAITLISVNGIFVICCLTYCFAPRCRERRRNETLRRESVRPV
notes: also called R1-27; R1 CTLA-4BP-27
B8: Round 2 CTLA4BP 2x1-b12 (ligand)
chain: VIHMTKEVKEVATLSCGHNVSVEELAQTRIYWQKEKKMVLTMMSGDMNIWPEYKNRTIFDITNNLSIVILALRPSDEGTYECVALKYEKDAFKQEHLAEVTLSVKADFPTPSISDFEIPPSNIRRIICSTSGGFPEPRLAWMEDGEELNAINTTVSQDPETELYTVSSKLDFNMTANHSFMCLIKYGHLRVNQTFNWNTPKQEHFPDNLLPSWAITLISVNGIFVICCLTYCFAPRCRERRRNERLRRESVCPV
B9: Round 2 CTLA4BP 2x1-c4 (ligand)
chain: VIHVTKEVKEVATLPCGHNVSVEELAQTRIHWQKEKKMVLTMMSGDMNIWPEYKNRTIFDITNNLSIVILALRPSDEGTYECVVLKYEKDAFKREHLAEVMLSVKADFPTPSITDFEIPPSNIRRIICSTSGGFPEPHLFWLENGEELNAINTTVSQDPGTELYAVSSKLDFNMTTNHNFMCLIKYGHLRVNQTFNWNTPKQEHFPDNLLPSWAITLISVNGIFVICCLTYCFAPRCRERRRNERLRRESVRPV
B10: Round 2 CTLA4BP 2x1-f10 (ligand)
chain: VIHVTKEVKEVATLSCGHNVSVEELAQTRIHWQKEKKMVLTMMSGDMNIWPEYKNRTIFDITNNLSIVILALRPSDEGTYECVVLKYEKDAFKREHLAEVMLSVKADFPTPSITDFEIPPSNIRRIICSTSGGFPEPRLAWMEDGEELNAINTTVSQDPGTELYAVSSKLDFNMTTNHSFMCLIKYGHLRVNQTFNWNTPKQEHFPDNLLPSWAITLISVNGISVICCLTYCFAPRCRERRRNERLRRESVCPV
B11: Round 2 CTLA4BP 2x1-g8 (ligand)
chain: VIHVTKEVKEVATLSCGHNVSVEELAQTRIHWQKEKKMVLTMMSGDMNIWPEYKNRTIFDITNNLSVVILALRPSDEGTYECVVLKYEKDAFKREHLAEVTLSVKADFPTPSITDFEIPPSNIRRIICSTSGGFPEPHLSWLENGEELNAINTTVSQDPGTELYTVSSKLDFNMTTNRSFVCLIKYGHLRVNQTFNWNTPKQEHFPDNLLPSWAITLISVNGIFVICCLTYCFAPRCRERKSNERLRRESVRPV
B12: Round 2 CTLA4BP 2x1-h12 (ligand)
chain: VIHVTKEVKEVATLSCGLNVSVEELAQTRIHWQKEKKMVLTMMSGDMNIWPEYKNRTIFDITNNLSIVILALRPSDEGTYECVVLKYEKDAFKREHLAEVMLSVKADFPTPSITDFEIPPSNIRRIICSTSGGFPEPHLSWLENGEELNAINTTVSQDPGTELYTVSSKLDFNMTTNHSFMCLIKYGHLRVNQTFNWNTPKQEHFPDNLLPSWAITLISANGIFVICCLTYCFAPRCRERKSNERLRRESVCPV
B13: Round 2 CTLA4BP 2x2-f1 (ligand)
chain: VIHVTKEVKEVATLSCGHNVSVEELAQTRIHWQKEKKMVLTMMSGDMNIWPEYKNRTIFDITNNLSIVILALRLSDEGTYECVVLKYEKDAFKREHLAEVTLSVKADFPTPSISDFEIPTSNIRRIICSTSGGFPEPHLFWLENGEELNAINTTASQDPETELYTVSSKLDFNMTTNRSFVCLIKYGHLRVNQTFNWNTPKQEHFPDNLLPSWAITLISVNGIFVICCLTYCFAPRCRERRRNERLRRESVRPV
B14: Round 2 CTLA4BP 2x2-f12 (ligand)
chain: VIHVTKEVKEVATLSCGHNVSVEELAQTRIHWQKEKKMVLTMMSGDMNIWPEYKNRTIFDITNNLSIVILALRPSDEGTYGCVVLEYEKDAFKREHLAEVMLSVKADFPTPSISDFEIPPSNIRRIICSTSGGFPEPHLSWLENGEELNAINTTVSQDPETELYAVSSKLDFNMTTNHSFMCLIKYGHLRANQTFNWNTPKQEHFPDNLLPSWAITLISVNGIFVICCLTYCFAPRCRERRRNERLRRESVRPV
B15: Round 2 CTLA4BP 2x4-h11 (ligand)
chain: VIHVTKEVKEVATLSCGHNVSVEELAQTRIYWQKEKKMVLTMMSGDMNIWPEYKNRTIFDITNNLSIVILALRPSDEGTYECVVLEYEKDAFKREHLAEVMLSVKADFPTPSISDFEIPPSNIRRIICSTSGGFPEPHLSWLENGEELNAINTTVSQDPGTELYAVSSKLDFNMTTNHSFMCLIKYGHLRVNQTFNWNTPKQEHFPDNLLPSWAITLISVNGIFVICCLAYCFAPRCRGRRRNERLRRESVRPV
B16: Round 2 CTLA4BP 5x1-d7 (ligand)
chain: VIHVTKEVKEVATLSCGHNVPVEELAQTRIYWQKEKKMVLTMMSGDMNIWPEYKNRTIFDITNNLSIVILALRPSDEGTYGCVVLEYEKDAFKREHLAEVMLSVKADFPTPSITDLEIPPSNIRRIICSTSGGFPEPHLFWLENGEELNAINTTASQDPETELYAVSSKLDFNMTTNHSFMCLIKYGHLRVNQTFNWNTPKQEHFPDNLLPSWAITLISANGIFVICCLTYCFAPRCRERRRNERLRRESVHPV
B17: Round 2 CTLA4BP 5x1-f1 (ligand)
chain: VIHVTKEVKEVATLSCGLNVSVEELAQTRIYWQKEKKMVLTMMSGDMNIWPEHKNRTIFDITNNLSIVILALRPSDEGTYECVVLKYEKDAFKREHLAEVTLSVKADFPTPSITDFEIPPSNIRRIICSTSGGFPEPHLFWLENGEELNAINTTASQDPETELYTVSSKLDFNMTANHSFVCLIKYGHLRVNQTFNWNTPKQEHFPDNLLPSWAITLISVNGIFVICCLTYCFAPRCRERRRNETLRRESVRPV
B18: Round 2 CTLA4BP 5x2-b7 (ligand)
chain: VIHVTKEVKEVATLSCGHNVSVEELAQTRIHWQKEKKMVLTMMSGDMNIWPEYKNRTIFDITNNLSIVILALRPSDEGTYECVVLKYEKDAFKREHLAEVTLSVKADFPTPSITDFEIPPSNIRRIICSTSGGFPEPHLSWLENGEELNAINTTVSQDPGTELYTVSSKLDFNMTANHSFVCLIKYGHLRVNQTFNWNTPKQEHFPDNLLPSWAITLISANGIFVICCLTYCFAPRCRERRRNERLRRESVRPV
B19: Round 2 CTLA4BP 5x2-d7 (ligand)
chain: VIHMTKEVKEVATLSCGLNVSVEELAQTRIHWQKEKKMVLTMMSGDMNIWPEYKNRTIFDITNNLSIVILALRPSDEGTYECVVLKYEKDAFKREHLAEVMLSVKADFPTPSISDFEIPPSNIRRIICSTSGGFPEPHLSWLENGEELNAINTTVSQDPETGLYTVSSKLDFNMTTNHSFMCLIKYGHLRVNQTFNWNTPKQEHFPDNLLPSWAITLISVNGIFVICCLTYCFAPRCRERRRNERLRRESVRPV

target: T1, Soluble CTLA-4-Ig (extracellular domain of human CTLA-4 fused to the Fc portion of human IgG1) (human, UniProt P16410 36-161, FITC-conjugated in the FACS binding assays); experiment: competitive FACS on transfected cells, FITC-sCTLA-4-Ig with biotin-sCD28-Ig; grade 0-2 of CTLA-4/CD28 ratio vs WT hB7-1
T1 construct: extracellular domain; bought from R&D Systems; also called sCTLA-4-Ig; CTLA-4-Ig Fc; not shown: Fc portion of human IgG1
T1 sequence (P16410 36-161): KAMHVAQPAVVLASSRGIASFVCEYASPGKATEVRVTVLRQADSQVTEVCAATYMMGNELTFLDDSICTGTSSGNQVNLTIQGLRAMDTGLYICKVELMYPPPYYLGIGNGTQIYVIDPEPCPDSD

Binding Score, 1:
B1, B2, B3, B5, B6, B7, B8, B9, B10, B11, B12, B13, B14, B16, B17, B18, B19

Binding Score, 0:
B15

Binding Score, 2:
B4
